Measurements taken from article PMC4557345.

Molecular target: Drosophila Orai (dOrai), expressed in HEK293T cells (Drosophila) (UniProt Q9U6B8)
UniProt Q9U6B8, sequence (Q9U6B8 whole entry): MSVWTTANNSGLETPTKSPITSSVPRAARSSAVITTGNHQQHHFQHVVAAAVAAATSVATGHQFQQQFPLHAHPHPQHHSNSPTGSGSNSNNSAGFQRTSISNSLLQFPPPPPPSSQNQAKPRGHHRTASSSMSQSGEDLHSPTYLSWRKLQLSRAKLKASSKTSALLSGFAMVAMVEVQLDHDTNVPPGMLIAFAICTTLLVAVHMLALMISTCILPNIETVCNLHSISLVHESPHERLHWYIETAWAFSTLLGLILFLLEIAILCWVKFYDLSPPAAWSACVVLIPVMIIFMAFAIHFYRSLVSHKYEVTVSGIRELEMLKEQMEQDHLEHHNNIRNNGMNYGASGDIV

| Substance | recovery time constant of the light-activated whole-cell current (patch clamp, HEK293T), against dmBACCS2 (fold of dmBACCS2) |
| --- | --- |
| dmBACCS2-N425S | < 0.5 |
| dmBACCS2-V416L | > 100 |
